Measurements as given in US20230134571A1 (INTERNATIONAL AIDS VACCINE INITIATIVE, published 2023).

Experiments:
Experiment in all cases: cell-based or functional assay
[1] = molecular target: HIV Env of isolate 6240_08_TA5_4622 (clade B) (HIV)
[2] = molecular target: HIV Env of isolate Ce0682_E4 (clade C) (HIV)
[3] = molecular target: HIV Env of isolate 1056_10_TA11_1826 (clade B) (HIV)
[4] = molecular target: HIV Env of isolate Du172.17 (clade C) (HIV)
[5] = molecular target: HIV Env of isolate 6535.3 (clade B) (HIV)
[6] = molecular target: HIV Env of isolate Ce1172_H1 (clade C) (HIV)
[7] = molecular target: HIV Env of isolate X1254_C3 (clade G) (HIV)
[8] = molecular target: HIV Env of isolate CAAN5342.A2 (clade B) (HIV)
[9] = molecular target: HIV Env of isolate ZM214M.PL15 (clade C) (HIV)
[10] = molecular target: HIV Env of isolate CAP210.2.00.E8 (clade C) (HIV)
[11] = molecular target: HIV Env of isolate 231965.c01 (clade D) (HIV)
[12] = molecular target: HIV Env of isolate X2088_C9 (clade G) (HIV)
[13] = molecular target: HIV Env of isolate 3817.v2.c59 (clade CD) (HIV)
[14] = molecular target: HIV Env of isolate T257-31 (clade AG) (HIV)
[15] = molecular target: HIV Env of isolate 0330.v4.c3 (clade A) (HIV)
[16] = molecular target: HIV Env of isolate Q769.d22 (clade A) (HIV)
[17] = molecular target: HIV Env of isolate WEAU_d15_410_5017 (clade B) (HIV)
[18] = molecular target: HIV Env of isolate C4118.c09 (clade AE) (HIV)
[19] = molecular target: HIV Env of isolate Du422.1 (clade C) (HIV)
[20] = molecular target: HIV Env of isolate P0402_C2_11 (clade G) (HIV)
[21] = molecular target: HIV Env of isolate BJOX009000.02.4 (clade AE) (HIV)

Binder	IC50 (µg/ml) with constrains [1] [µg/mL]	IC50 (µg/ml) with constrains [2] [µg/mL]	IC50 (µg/ml) with constrains [3] [µg/mL]	IC50 (µg/ml) with constrains [4] [µg/mL]	IC50 (µg/ml) with constrains [5] [µg/mL]	IC50 (µg/ml) with constrains [6] [µg/mL]	IC50 (µg/ml) with constrains [7] [µg/mL]	IC50 (µg/ml) with constrains [8] [µg/mL]	IC50 (µg/ml) with constrains [9] [µg/mL]	IC50 (µg/ml) with constrains [10] [µg/mL]	IC50 (µg/ml) with constrains [11] [µg/mL]	IC50 (µg/ml) with constrains [12] [µg/mL]	IC50 (µg/ml) with constrains [13] [µg/mL]	IC50 (µg/ml) with constrains [14] [µg/mL]	IC80 (µg/ml) with constrains [14] [µg/mL]	IC50 (µg/ml) with constrains [15] [µg/mL]	IC80 (µg/ml) with constrains [15] [µg/mL]	IC50 (µg/ml) with constrains [16] [µg/mL]	IC80 (µg/ml) with constrains [16] [µg/mL]	IC50 (µg/ml) with constrains [17] [µg/mL]	further results
ePGDM13 (antibody, V domains shown) VH: QAQLVQSGPEVRKPGTSVKVSCKNPGNTLTTYDLHWVRQVPGQGLQWMGWISHEGDKKVIVERFKAKVTIDWDRSTNTAYLQLSGLTSEDTAVYYCAKGSKHRLRDYALYDEDGALNWAVDVDYLANLEFWGQGTAVTVSS VL: DIVLTQSPLSLSVTPGESASISCKSSHSLQHGDRNNYLAWYVQKPGRSPQLLLDLASERASGVPDRFSGSGSEKDFTLKISRVETEDVGTYYCMQGRESPWTFGQGTKVDIK	3.16	0.011	1.51	1.5	> 100	0.061	0.518	40.2	> 100	0.135	0.015	64.1	14	0.02	0.078	0.002	0.008	0.002	0.01	0.003	IC50 (µg/ml) with constrains [18]: 0.001 µg/mL; IC80 (µg/ml) with constrains [18]: 0.005 µg/mL; IC50 (µg/ml) with constrains [19]: 27.5 µg/mL; IC50 (µg/ml) with constrains [20]: 0.001 µg/mL; IC50 (µg/ml) with constrains [21]: 0.265 µg/mL; IC80 (µg/ml) with constrains [21]: 1.06 µg/mL
PGDM1400 (antibody, V domains shown) VH: QVHLTQSGPEVRKPGTSVKVSCKAPGNTLKTYDLHWVRSVPGQGLQWMGWISHEGDKKVIVERFKAKVTIDWDRSTNTAYLQLSGLTSGDTAVYYCAKGSKHRLRDYALYDDDGALNWAVDVDYLSNLEFWGQGTAVTVSS VL: DFVLTQSPHSLSVTPGESASISCKSSHSLIHGDRNNYLAWYVQKPGRSPQLLIYLASSRASGVPDRFSGSGSDKDFTLKISRVETEDVGTYYCMQGRESPWTFGQGTKVDIK	52.4	0.009	3.38	5.42	> 100	0.218	45.4	> 100	> 100	0.33	0.061	> 100	> 100	0.138	0.552	0.004	0.016	0.007	0.028	0.075	IC50 (µg/ml) with constrains [18]: 0.002 µg/mL; IC80 (µg/ml) with constrains [18]: 0.006 µg/mL; IC50 (µg/ml) with constrains [19]: 33.4 µg/mL; IC50 (µg/ml) with constrains [20]: 0.007 µg/mL; IC50 (µg/ml) with constrains [21]: 1.1 µg/mL; IC80 (µg/ml) with constrains [21]: 4.42 µg/mL
ePGDM5 (antibody, V domains shown) VH: QAQLVQSGPEVRKPGTSVKVSCKNPGNTLTTYDLHWVRQVPGQGLQWMGWISHEGDKKVIVERFKAKVTIDWDRSTNTAYLQLSGLTSEDTAVYYCAKGSKHRLRDYALYDEDGALNWAVDVDYLANLEFWGQGTAVTVSS VL: DFVLTQSPLSLSVTPGESASISCKSDHSLQHGDRNNYLAWYVQKPGRSPQLLIDLASERASGVPDRFSGSGSRKDFTLKIDRVEAEDVGTYYCMQGRESPWTFGQGTKVDIK	2.02	0.005	0.893	1.49	98.2	0.016	0.217	73	> 100	0.057	0.009	28.6	0.232	0.016	0.064	0.003	0.01	0.003	0.011	0.001	IC80 (µg/ml) with constrains [18]: 0.002 µg/mL; IC50 (µg/ml) with constrains [19]: 8.64 µg/mL; IC50 (µg/ml) with constrains [20]: 0.004 µg/mL; IC50 (µg/ml) with constrains [21]: 0.296 µg/mL; IC80 (µg/ml) with constrains [21]: 1.18 µg/mL
ePGDM9 (antibody, V domains shown) VH: QAQLVQSGPEVRKPGTSVKVSCKNPGNTLTTYDLHWVRQVPGQGLQWMGWISHEGDKKVIVERFKAKVTIDWDRSTNTAYLQLSGLTSEDTAVYYCAKGSKHRLRDYALYDEDGALNWAVDVDYLANLEFWGQGTAVTVSS VL: DIVLTQSPLSLSVTPGESASISCKSSQSLIHGDRNNYLAWYVQKPGRSPQLLIDLASERASGVPDRFSGSGSRKDFTLKISRVETEDVGTYYCMQGRESPWTFGQGTKVDIK	1.65	0.005	0.903	0.865	57.8	0.027	0.178	17.5	> 100	0.055	0.009	> 100	0.16	0.019	0.076	0.003	0.01	0.002	0.009	0.002	IC50 (µg/ml) with constrains [18]: 0.001 µg/mL; IC80 (µg/ml) with constrains [18]: 0.005 µg/mL; IC50 (µg/ml) with constrains [19]: 13.3 µg/mL; IC50 (µg/ml) with constrains [20]: 0.001 µg/mL; IC50 (µg/ml) with constrains [21]: 0.234 µg/mL; IC80 (µg/ml) with constrains [21]: 0.936 µg/mL
